Patent US20250250322A1 (CHILDREN S HOSPITAL OF PHILADELPHIA, published 2025)

B1: FVIIIa-QQVV (thrombin-activated B-domain deleted FVIII R336Q/R562Q/D519V/E665V) (other)
chain 1: ATRRYYLGAVELSWDYMQSDLGELPVDARFPPRVPKSFPFNTSVVYKKTLFVEFTDHLFNIAKPRPPWMGLLGPTIQAEVYDTVVITLKNMASHPVSLHAVGVSYWKASEGAEYDDQTSQREKEDDKVFPGGSHTYVWQVLKENGPMASDPLCLTYSYLSHVDLVKDLNSGLIGALLVCREGSLAKEKTQTLHKFILLFAVFDEGKSWHSETKNSLMQDRDAASARAWPKMHTVNGYVNRSLPGLIGCHRKSVYWHVIGMGTTPEVHSIFLEGHTFLVRNHRQASLEISPITFLTAQTLLMDLGQFLLFCHISSHQHDGMEAYVKVDSCPEEPQLQMKNNEEAEDYDDDLTDSEMDVVRFDDDNSPSFIQIR
chain 2: SVAKKHPKTWVHYIAAEEEDWDYAPLVLAPDDRSYKSQYLNNGPQRIGRKYKKVRFMAYTDETFKTREAIQHESGILGPLLYGEVGDTLLIIFKNQASRPYNIYPHGITDVRPLYSRRLPKGVKHLKDFPILPGEIFKYKWTVTVEVGPTKSDPRCLTRYYSSFVNMERDLASGLIGPLLICYKESVDQQGNQIMSDKRNVILFSVFDENRSWYLTENIQRFLPNPAGVQLEDPEFQASNIMHSINGYVFDSLQLSVCLHEVAYWYILSIGAQTDFLSVFFSGYTFKHKMVYVDTLTLFPFSGETVFMSMENPGLWILGCHNSDFRNRGMTALLKVSSCDKNTGDYYEDSYEDISAYLLSKNNAIEPR
chain 3: SFQKKTRHYFIAAVERLWDYGMSSSPHVLRNRAQSGSVPQFKKVVFQEFTDGSFTQPLYRGELNEHLGLLGPYIRAEVEDNIMVTFRNQASRPYSFYSSLISYEEDQRQGAEPRKNFVKPNETKTYFWKVQHHMAPTKDEFDCKAWAYFSDVDLEKDVHSGLIGPLLVCHTNTLNPAHGRQVTVQEFALFFTIFDETKSWYFTENMERNCRAPCNIQMEDPTFKENYRFHAINGYIMDTLPGLVMAQDQRIRWYLLSMGSNENIHSIHFSGHVFTVRKKEEYKMALYNLYPGVFETVEMLPSKAGIWRVECLIGEHLHAGMSTLFLVYSNKCQTPLGMASGHIRDFQITASGQYGQWAPKLARLHYSGSINAWSTKEPFSWIKVDLLAPMIIHGIKTQGARQKFSSLYISQFIIMYSLDGKKWQTYRGNSTGTLMVFFGNVDSSGIKHNIFNPPIIARYIRLHPTHYSIRSTLRMELMGCDLNSCSMPLGMESKAISDAQITASSYFTNMFATWSPSKARLHLQGRSNAWRPQVNNPKEWLQVDFQKTMKVTGVTTQGVKSLLTSMYVKEFLISSSQDGHQWTLFFQNGKVKVFQGNQDSFTPVVNSLDPPLLTRYLRIHPQSWVHQIALRMEVLGCEAQDLY
notes: also called FVIII-QQVV; FVIII-QQ/VV
B2: FVIIIa-VV (thrombin-activated B-domain deleted FVIII D519V/E665V) (other)
chain 1: ATRRYYLGAVELSWDYMQSDLGELPVDARFPPRVPKSFPFNTSVVYKKTLFVEFTDHLFNIAKPRPPWMGLLGPTIQAEVYDTVVITLKNMASHPVSLHAVGVSYWKASEGAEYDDQTSQREKEDDKVFPGGSHTYVWQVLKENGPMASDPLCLTYSYLSHVDLVKDLNSGLIGALLVCREGSLAKEKTQTLHKFILLFAVFDEGKSWHSETKNSLMQDRDAASARAWPKMHTVNGYVNRSLPGLIGCHRKSVYWHVIGMGTTPEVHSIFLEGHTFLVRNHRQASLEISPITFLTAQTLLMDLGQFLLFCHISSHQHDGMEAYVKVDSCPEEPQLRMKNNEEAEDYDDDLTDSEMDVVRFDDDNSPSFIQIR
chain 2: SVAKKHPKTWVHYIAAEEEDWDYAPLVLAPDDRSYKSQYLNNGPQRIGRKYKKVRFMAYTDETFKTREAIQHESGILGPLLYGEVGDTLLIIFKNQASRPYNIYPHGITDVRPLYSRRLPKGVKHLKDFPILPGEIFKYKWTVTVEVGPTKSDPRCLTRYYSSFVNMERDLASGLIGPLLICYKESVDQRGNQIMSDKRNVILFSVFDENRSWYLTENIQRFLPNPAGVQLEDPEFQASNIMHSINGYVFDSLQLSVCLHEVAYWYILSIGAQTDFLSVFFSGYTFKHKMVYVDTLTLFPFSGETVFMSMENPGLWILGCHNSDFRNRGMTALLKVSSCDKNTGDYYEDSYEDISAYLLSKNNAIEPR
chain 3: SFQKKTRHYFIAAVERLWDYGMSSSPHVLRNRAQSGSVPQFKKVVFQEFTDGSFTQPLYRGELNEHLGLLGPYIRAEVEDNIMVTFRNQASRPYSFYSSLISYEEDQRQGAEPRKNFVKPNETKTYFWKVQHHMAPTKDEFDCKAWAYFSDVDLEKDVHSGLIGPLLVCHTNTLNPAHGRQVTVQEFALFFTIFDETKSWYFTENMERNCRAPCNIQMEDPTFKENYRFHAINGYIMDTLPGLVMAQDQRIRWYLLSMGSNENIHSIHFSGHVFTVRKKEEYKMALYNLYPGVFETVEMLPSKAGIWRVECLIGEHLHAGMSTLFLVYSNKCQTPLGMASGHIRDFQITASGQYGQWAPKLARLHYSGSINAWSTKEPFSWIKVDLLAPMIIHGIKTQGARQKFSSLYISQFIIMYSLDGKKWQTYRGNSTGTLMVFFGNVDSSGIKHNIFNPPIIARYIRLHPTHYSIRSTLRMELMGCDLNSCSMPLGMESKAISDAQITASSYFTNMFATWSPSKARLHLQGRSNAWRPQVNNPKEWLQVDFQKTMKVTGVTTQGVKSLLTSMYVKEFLISSSQDGHQWTLFFQNGKVKVFQGNQDSFTPVVNSLDPPLLTRYLRIHPQSWVHQIALRMEVLGCEAQDLY
notes: also called FVIII-VV

Biological target: T1, Factor IXa (UniProt P00740 47-191; P00740 227-461)
T1 construct: also called FIXa
T1 sequence (P00740 47-191 limits assumed, form in doubt, chain 1 of 2): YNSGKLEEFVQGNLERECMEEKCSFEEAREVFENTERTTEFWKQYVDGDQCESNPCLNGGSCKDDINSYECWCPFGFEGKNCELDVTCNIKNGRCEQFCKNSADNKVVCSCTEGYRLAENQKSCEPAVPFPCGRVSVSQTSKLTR
T1 sequence (P00740 227-461 limits assumed, form in doubt, chain 2 of 2): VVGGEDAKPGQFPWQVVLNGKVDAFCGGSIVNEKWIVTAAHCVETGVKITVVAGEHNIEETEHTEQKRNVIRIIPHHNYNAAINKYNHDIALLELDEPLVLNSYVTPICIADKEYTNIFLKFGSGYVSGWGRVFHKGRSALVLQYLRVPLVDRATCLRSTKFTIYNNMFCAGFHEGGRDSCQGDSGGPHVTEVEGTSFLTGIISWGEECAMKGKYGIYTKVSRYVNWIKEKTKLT
Test: functional Kd from intrinsic Xase FXa-generation assay; 0.25 nM FVIIIa, 0-20 nM FIXa, 200 nM FX, 20 uM phospholipids
Procedure: Kinetic analysis of FXa generation was performed by an intrinsic Xase assay, as described with modifications (Wilhelm, et al. (2021) Blood 137:2532-2543; Lollar, et al. (1989) Biochemistry 28 (2): 666-674). Activated FVIII (FVIIIa) was generated by incubating 25 nM FVIII with 100 nM thrombin for 30 seconds and thereafter quenched with hirudin (150 nM). […] At various time intervals (0.25-2 minutes), aliquots of the reaction mixture were quenched in 20 mM HEPES, 150 mM NaCl, 25 mM EDTA, 0.1% polyethylene glycol-8000, pH 7.4. The amount of FXa in each quenched sample was assessed using Spectrozyme® Xa by measuring absorbance at 405 nm in SpectraMax® 190 Microplate reader (Molecular Devices) and comparing the results to a prepared FXa standard curve.
TABLE 1 Biochemical Characterization of FVIII Proteins. Specific activity was determined by an aPTT based clotting assay measurement of clotting activity relative to protein concentration. Kinetic values were determined for FX activation by an intrinsic Xase assay using equimolar FVIIIa and FIXa (0.25 nM) 0.25 nM FVIIIa, 0.25 nM or 0-20 nM FIXa and 0-500 nM FX in the presence of 20 μM phospholipids. […] Data are represented as means ± SEM from at least two independent experiments.

Binder | Kd
B1 | 1.2 nM
B2 | 1.6 nM
